Residue numbers refer to the chain shown, from its start. Starred links: 1 amine or outer side, 2 acyl side, 3 side chain; linkers in the order of their positions; H or OH if unused. Positions of bridges follow the written chain, without caps; N, C: chain ends. Non-standard residues stand in square brackets, D forms with d. Chains are numbered I, II in the order given. No end group written: not given here. dLys(PYA) = D-lysine Nε-acylated with 4-pentynoic acid, clicked (triazole) to the linker azide, O=C(CCc1cn([*:3])nn1)NCCCC[C@@H](N[*:1])C(=O)[*:2]; TATA = O=C(CC[*:1])N1CN(C(=O)CC[*:2])CN(C(=O)CC[*:3])C1; 1Nal = N[C@@H](Cc1cccc2ccccc12)C(=O)O; Hyp = O=C(O)[C@@H]1C[C@@H](O)CN1; hArg = N=C(N)NCCCC[C@H](N)C(=O)O; tBuAla = CC(C)(C)C[C@H](N)C(=O)O; Nle = CCCC[C@H](N)C(=O)O
Assays:
[1] = molecular target: T1, Nectin-2 (2229-N2, R&D Systems) (UniProt Q92692 32-360, limits assumed, biotinylated); assay: SPR, biotinylated target on streptavidin surface
T1 sequence (looked up): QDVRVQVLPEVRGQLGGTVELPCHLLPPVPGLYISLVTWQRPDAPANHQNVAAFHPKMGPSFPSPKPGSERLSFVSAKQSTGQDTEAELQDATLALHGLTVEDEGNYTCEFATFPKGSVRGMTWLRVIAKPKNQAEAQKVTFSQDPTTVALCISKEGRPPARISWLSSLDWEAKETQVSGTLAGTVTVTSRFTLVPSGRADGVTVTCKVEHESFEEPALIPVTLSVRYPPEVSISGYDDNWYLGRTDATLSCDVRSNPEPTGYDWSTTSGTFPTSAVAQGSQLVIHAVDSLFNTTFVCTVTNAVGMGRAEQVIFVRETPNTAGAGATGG

[2] = molecular target: Nectin-3 (3064-N3, R&D Systems) (UniProt Q9NQS3 58-404, limits assumed, biotinylated); assay: SPR, biotinylated target on streptavidin surface
[3] = molecular target: T2, Nectin-like-2 (3519-S4-050, R&D Systems) (UniProt Q9BY67 45-374, biotinylated); assay: SPR, biotinylated target on streptavidin surface
T2 sequence (looked up): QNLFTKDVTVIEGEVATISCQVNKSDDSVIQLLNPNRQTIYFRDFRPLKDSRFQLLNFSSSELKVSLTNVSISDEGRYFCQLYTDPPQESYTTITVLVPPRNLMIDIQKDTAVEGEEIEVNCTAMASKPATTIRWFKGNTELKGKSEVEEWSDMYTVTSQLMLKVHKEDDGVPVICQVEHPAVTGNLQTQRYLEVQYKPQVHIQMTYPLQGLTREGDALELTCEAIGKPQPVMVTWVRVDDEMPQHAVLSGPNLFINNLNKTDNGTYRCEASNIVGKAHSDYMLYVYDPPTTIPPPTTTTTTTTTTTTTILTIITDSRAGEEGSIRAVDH

[4] = molecular target: T3, human Nectin-4 extracellular domain (human, UniProt Q96NY8 32-349, biotinylated where captured on the streptavidin chip); assay: SPR direct binding, biotinylated Nectin-4 ECD on streptavidin chip, 25° C., n = 7
T3 construct: extracellular domain; also called Nectin-4 (human); Biotinylated - Nectin-4 extracellular domain
T3 sequence (looked up): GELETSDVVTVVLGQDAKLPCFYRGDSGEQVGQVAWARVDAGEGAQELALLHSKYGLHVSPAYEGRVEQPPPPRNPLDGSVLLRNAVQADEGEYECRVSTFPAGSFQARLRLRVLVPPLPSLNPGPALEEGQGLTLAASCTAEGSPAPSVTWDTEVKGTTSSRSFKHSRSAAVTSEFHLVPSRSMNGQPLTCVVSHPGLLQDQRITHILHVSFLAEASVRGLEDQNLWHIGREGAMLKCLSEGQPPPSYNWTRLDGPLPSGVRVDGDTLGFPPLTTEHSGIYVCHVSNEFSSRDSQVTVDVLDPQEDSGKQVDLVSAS

[5] = molecular target: T4, cyno (NHP) Nectin-4 extracellular domain (cyno (NHP), UniProt A0A2K5WES1 32-349, biotinylated where captured on the streptavidin chip); assay: SPR direct binding, biotinylated Nectin-4 ECD on streptavidin chip, 25° C., n = 9
T4 construct: extracellular domain
T4 sequence: T3 sequence (looked up) with V39A, I230V

[6] = molecular target: T5, mouse Nectin-4 extracellular domain (mouse, UniProt Q8R007 31-347, biotinylated where captured on the streptavidin chip); assay: as above
T5 construct: extracellular domain
T5 sequence (looked up): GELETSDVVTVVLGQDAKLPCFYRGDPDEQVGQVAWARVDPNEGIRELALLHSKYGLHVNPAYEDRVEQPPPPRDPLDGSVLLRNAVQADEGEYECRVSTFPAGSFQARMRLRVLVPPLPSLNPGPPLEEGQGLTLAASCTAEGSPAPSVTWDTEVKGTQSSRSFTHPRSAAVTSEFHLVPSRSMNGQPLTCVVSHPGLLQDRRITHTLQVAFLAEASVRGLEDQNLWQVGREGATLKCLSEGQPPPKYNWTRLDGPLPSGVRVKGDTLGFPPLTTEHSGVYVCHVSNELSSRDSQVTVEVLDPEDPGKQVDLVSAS

[7] = molecular target: T6, cyno (NHP) CD137 extracellular domain (cyno (NHP), UniProt A9YYE7 24-186); assay: SPR dual binding, BCY11863 captured on biotinylated human Nectin-4, soluble CD137 ECD passed over, n = 3
T6 construct: extracellular domain

[8] = molecular target: T4, cyno (NHP) Nectin-4 extracellular domain; assay: SPR sandwich assay, BCY11863 captured on biotinylated human CD137, soluble Nectin-4 ECD passed over, n = 3
[9] = molecular target: T7, rat Nectin-4 extracellular domain (rat, UniProt D3ZET1 31-348, biotinylated where captured on the streptavidin chip); assay: as above
T7 construct: extracellular domain
T7 sequence: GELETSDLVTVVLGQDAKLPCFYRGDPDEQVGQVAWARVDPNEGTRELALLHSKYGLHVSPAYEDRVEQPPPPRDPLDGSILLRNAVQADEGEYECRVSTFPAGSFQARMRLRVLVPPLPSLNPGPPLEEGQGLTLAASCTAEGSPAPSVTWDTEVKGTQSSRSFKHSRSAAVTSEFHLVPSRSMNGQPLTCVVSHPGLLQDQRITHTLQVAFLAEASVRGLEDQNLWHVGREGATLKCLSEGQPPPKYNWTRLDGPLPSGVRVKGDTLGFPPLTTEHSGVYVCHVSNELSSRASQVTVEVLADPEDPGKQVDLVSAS

[10] = molecular target: T5, mouse Nectin-4 extracellular domain; assay: as above

Chain of Nectin-3 (3064-N3, R&D Systems) (Q9NQS3 58-404 limits assumed): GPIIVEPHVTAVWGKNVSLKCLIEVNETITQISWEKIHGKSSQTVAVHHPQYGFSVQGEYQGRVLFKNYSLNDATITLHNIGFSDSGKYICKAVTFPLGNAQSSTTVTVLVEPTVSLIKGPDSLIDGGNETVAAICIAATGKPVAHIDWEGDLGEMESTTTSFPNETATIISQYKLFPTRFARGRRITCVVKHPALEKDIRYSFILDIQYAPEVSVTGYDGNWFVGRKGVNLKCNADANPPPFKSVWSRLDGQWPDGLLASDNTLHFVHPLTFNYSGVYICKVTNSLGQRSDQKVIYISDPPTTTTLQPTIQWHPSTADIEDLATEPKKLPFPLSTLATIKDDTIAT
T6 sequence (A9YYE7 entry or part of it): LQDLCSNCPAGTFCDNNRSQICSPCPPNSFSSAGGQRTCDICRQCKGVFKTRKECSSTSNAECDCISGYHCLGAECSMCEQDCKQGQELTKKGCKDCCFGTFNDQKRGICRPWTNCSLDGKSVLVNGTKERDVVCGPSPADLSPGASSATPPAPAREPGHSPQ

B1: heterotandem bicyclic peptide complex BCY11863 (peptide)
peptide 1: CP[1Nal][dD]CM[hArg]DWSTP[Hyp]WC
peptide 2: Ac-C[tBuAla]PE[dLys(PYA)]PYCFADPY[Nle]CA
modifications: linker I:1-I:5-I:15, II:1-II:8-II:15 via TATA; not fully specified (bridges); also: 1:2 complex: BCY8116 + 2x BCY8928
notes: also called Nectin-4/CD137 heterotandem
B1: no binding (tested: 5000 nM) [1]; no binding (tested: 5000 nM) [2]; no binding (tested: 5000 nM) [3]. For the same binder, the Kd [4] was 5 nM, the Kd [5] was 27 nM and the Kd [6] was 4.6 nM. It also gave a Kd [7] of 18 nM, a Kd [8] of 28 nM and a Kd [9] of 25 nM. For the same binder, the Kd [10] was 6.7 nM.

Reference: patent publication US20230129258A1 (Bicycle, published 2023)
